Source: publication PMC5043372 (2016)
Non-standard residues stand in square brackets, D forms with d. No end group written: not given here. pY = N[C@@H](Cc1ccc(OP(=O)(O)O)cc1)C(=O)O

T1: SH2 domain of Monosiga brevicollis crka1 (Monosiga brevicollis, UniProt A0A1C9VNP8 1-97)
T1 chain: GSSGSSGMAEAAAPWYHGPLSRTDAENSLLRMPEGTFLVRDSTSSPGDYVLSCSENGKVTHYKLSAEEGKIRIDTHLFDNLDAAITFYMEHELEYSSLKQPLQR


Biological target: T1, SH2 domain of Monosiga brevicollis crka1
Assay: ITC

Ka [M⁻¹] | Binder
116000 | HH[pY]DTPRS [phosphotyrosyl peptide from M. musculus Dok7 (Y406)]
23300 | AE[pY]QVPTS [Dok7 Y396]

biological target: T2, SH2 domain of human CRK (human, UniProt P46108 13-118); assay: ITC
T2 sequence (P46108 other isoform, or with tags, fused parts or gaps): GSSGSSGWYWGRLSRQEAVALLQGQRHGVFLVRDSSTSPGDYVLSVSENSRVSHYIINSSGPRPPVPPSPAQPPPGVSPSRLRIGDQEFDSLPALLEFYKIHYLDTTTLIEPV

Ka [M⁻¹] | Binder
460000 | DL[pY]QVPPG [Bcar1 Y169]
2.34e+06 | AE[pY]QVPTS [Dok7 Y396]

biological target: T3, SH2 domain of human CRKL (human, UniProt P46109 14-102); assay: ITC
T3 sequence (P46109 other isoform, or with tags, fused parts or gaps): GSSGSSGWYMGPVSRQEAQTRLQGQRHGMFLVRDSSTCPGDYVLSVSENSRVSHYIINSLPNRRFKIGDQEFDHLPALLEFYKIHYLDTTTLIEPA

Ka [M⁻¹] | Binder
9.16e+06 | HH[pY]DTPRS [phosphotyrosyl peptide from M. musculus Dok7 (Y406)]
1.53e+06 | AE[pY]QVPTS [Dok7 Y396]

Biological target: T1, SH2 domain of Monosiga brevicollis crka1
Assay: ITC
Remark: another data set of the same source

Binder | Kd [µM]
DE[pY]DTPRH [phosphotyrosyl peptide from M. musculus Bcar1 (p130Cas, Y238)] | 10.1
HH[pY]DTPRS [phosphotyrosyl peptide from M. musculus Dok7 (Y406)] | 8.62
LN[pY]ENLPS [FRS2 Y349 peptide LN-pYENL-PS] | 126

Continued, values first:

Kd [µM] | Binder
42.9 | AE[pY]QVPTS [Dok7 (Y396) peptide AE-pYQVP-TS]
61.7 | DM[pY]DVPRN [phosphopeptide DM-pYDVP-RN of S. rosetta PTSG_05573]
118 | EM[pY]DVPRS [phosphopeptide EM-pYDVP-RS of S. rosetta PTSG_05573]

biological target: T2, SH2 domain of human CRK; assay: ITC; remark: another data set of the same source

Binder | Kd [µM]
SL[pY]DRPAS [PDGFRA Y762 peptide SL-pYDRP-AS] | 0.98
DE[pY]DTPRH [phosphotyrosyl peptide from M. musculus Bcar1 (p130Cas, Y238)] | 0.127
PH[pY]FVLTS [PLCG1 Y509 peptide PH-pYFVL-TS] | 8.93
SR[pY]QQPFE [PLCG1 Y1253 peptide SR-pYQQP-FE] | 6.45
EV[pY]DTPPM [p130Cas (Bcar1) Y271 peptide EV-pYDTP-PM] | 1.07
SV[pY]ESPYS [ZAP70 Y315 peptide SV-pYESP-YS] | 4.44
PN[pY]MFPSQ [ROR1 Y789 peptide PN-pYMFP-SQ] | 8.85
HH[pY]DTPRS [phosphotyrosyl peptide from M. musculus Dok7 (Y406)] | 0.0602
DL[pY]DVPPG [p130Cas (Bcar1) Y376 peptide DL-pYDVP-PG] | 4.83
GP[pY]AQPSV [CRK Y221 peptide GP-pYAQP-SV] | 10.2

Continued, values first:

Kd [µM] | Binder
2.17 | DL[pY]QVPPG [p130Cas (Bcar1) Y169 peptide DL-pYQVP-PG]
0.649 | SV[pY]DVPPS [p130Cas (Bcar1) Y310 peptide SV-pYDVP-PS]
0.455 | DV[pY]DVPPS [p130Cas (Bcar1) Y291 peptide DV-pYDVP-PS]
25.1 | SN[pY]MAPYD [PDGFRB Y771 peptide SN-pYMAP-YD]
0.427 | AE[pY]QVPTS [Dok7 (Y396) peptide AE-pYQVP-TS]
2.48 | HV[pY]SFPNK [paxillin (PXN) Y118 peptide HV-pYSFP-NK]
5.21 | QQ[pY]SSPGL [EPHB6 Y635 peptide QQ-pYSSP-GL]

biological target: T3, SH2 domain of human CRKL; assay: ITC; remark: another data set of the same source

Binder | Kd [µM]
DE[pY]DTPRH [phosphotyrosyl peptide from M. musculus Bcar1 (p130Cas, Y238)] | 0.368
SR[pY]QQPFE [PLCG1 Y1253 peptide SR-pYQQP-FE] | 9.8
HH[pY]DTPRS [phosphotyrosyl peptide from M. musculus Dok7 (Y406)] | 0.109

Further lines, results first:

Kd [µM] | Binder
1.06 | DV[pY]DVPPS [p130Cas (Bcar1) Y291 peptide DV-pYDVP-PS]
0.654 | AE[pY]QVPTS [Dok7 (Y396) peptide AE-pYQVP-TS]
